Paper doi:10.1101/2022.03.18.484870 (bioRxiv, 2022)

T1: Alb4C-His (recombinant His-tagged C-terminus of Alb4, aa 334-499) (UniProt Q9FYL3 334-499)
T1 sequence: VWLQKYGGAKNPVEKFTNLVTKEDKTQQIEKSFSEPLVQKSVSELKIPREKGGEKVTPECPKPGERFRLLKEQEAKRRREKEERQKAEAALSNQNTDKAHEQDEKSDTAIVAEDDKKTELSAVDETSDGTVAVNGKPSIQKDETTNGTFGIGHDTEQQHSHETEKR

B1: His-mSTIC2 (recombinant mature Arabidopsis thaliana STIC2, aa 49-182) (natural protein)
chain: VNGLFGGGNKDNNSEDGQSKAGIFGNMQNMYETVKKAQMVVQVEAVRVQKELAAAEFDGYCAGELVKVTLSGNQQPIRTDITEAAMELGSEKLSQLVTEAYKDAHAKSVVAMKERMSDLAQSLGMPPGLSEGMK

Legend:
[1] = target: B1; assay: peptide or protein array
[2] = target: B1; assay: ITC
[3] = target: T1, Alb4C-His (recombinant His-tagged …); assay: ITC

| Binder | binding result [1] | also measured |
| --- | --- | --- |
| GERFRQLKEQEKRSK [Alb3 15mer peptide spot (aa 386-400)] | binds |  |
| PKPGERFRLLKEQEA [Alb4 15mer peptide spot (aa 394-408)] | binds |  |
| Alb3C-His (recombinant His-tagged C-terminus of Alb3, aa 350-462) (domain or fragment) VYLRKLGGAKPNMDENASKIISAGRAKRSIAQPDDAGERFRQLKEQEKRSKKNKAVAKDTVELVEESQSESEEGSDDEEEEAREGALASSTTSKPLPEVGQRRSKRSKRKRTV |  | Kd [2]: 136 µM |
| B1 |  | Kd [3]: 16.6 µM |
